Laboratory results published in US7052704B2, “Methods and compositions for lipidization of hydrophilic molecules” (University of Southern California, priority 1995, dated 2006).

What was measured:
[1] = tested on: Human colon carcinoma cells (Caco-2); experiment: Uptake of 125I-BBI conjugates into Caco-2 cell monolayers
[2] = tested on: C3H 10T1/2(clone 8) cells; experiment: In vitro transformation assay (MCA-induced); format: cell-based; conditions: MCA 1 μg/ml 24 hr, then conjugates 1.0 μg/ml for first three weeks
Method: Transformation assays were carried out using C3H 10T1/2(clone 8) cells according to the published recommendations [Reznikoff, C. A. et al. (1973) Cancer. Res. 33, 3239–3249; Reznikoff, C. A. et al. (1973) Cancer. Res. 33, 3231–3238]. Stock cultures of mycoplasma-free cells were maintained by passing 50,000 cells per 75 cm^2 flask every seven days. Using this schedule, the cells were always passed approximately 2 days before reaching confluence. The stock culture was grown in Eagle's basal medium supplemented with 10% FBS, penicillin (100 units), and streptomycin (100 μg) and used for the transformation assays at passages of 9 to 14. The cells were passed by treating the stock cells with trypsin (0.1%) in PBS for 5 min and quenching the trypsin with 5 ml of the medium. This procedure was adapted to minimize spontaneous transformation in the stock cultures and maximize the plating efficiency in the petri dishes. The FBS stock used in the cultures was pre-screened to ensure that the serum was able to support the expression and the growth of the transformed cells.
For the transformation assays, C3H 10T1/2 cells (1000/dish) were seeded into 60 mm petri dishes and allowed to grow in a humidified 5% CO2 atmosphere in Eagle's basal medium, supplemented with 10% FBS, penicillin (100 units), and streptomycin (100 μg), for 24 hr. Subsequently, the cells were initiated by treatment with 25 μl of the 3-methylcholanthrene (MCA) in acetone stock solution ([…]) to a final concentration of 1 μg/ml of MCA (5 μg/5 ml). The cells were allowed to grow in the presence of the carcinogen or solvent for 24 hr, and the medium in each dish was then replaced with fresh medium containing no carcinogen or solvent. The medium in the dishes was replaced twice per week for the first two weeks of the assay, and thereafter once a week for the remainder four weeks of the assay. In the experiments designed to determine the transformation inhibitory activity of the conjugates, the cells were maintained in the medium containing the conjugates (1 μg/ml) for the first three weeks of the assay; thereafter, the cells were maintained in medium containing no added conjugates.
Six weeks after the carcinogen treatment, the cells were inspected under a microscope for adherence to the culture dishes and were washed with PBS and then fixed in 100% methanol. The fixed monolayers were then stained with Giemsa stain. 20 dishes per group were treated in each experiment. In addition to the test groups, all the transformation assays contained at least three other groups: negative control (not treated with carcinogen or solvent), acetone control (treated with 25 μl of acetone), and positive control [treated with MCA (1 μg/ml) in 25 μl of acetone]. The transformed foci (>3 mm in diameter) in the plates were studied under a microscope and classified according to published guidelines as types I, II, or III [Landolph, J. R. (1985) Transfomatin assay of established cell lines: Mechanism and Application (ed. Kakunaga, T., and Yamasaki, H.) IARC Scientific Publications, Lyon, France pp. 185–201]. Briefly, type III foci were dense, multilayered, basophilic, areas of cell growth which stained to a deep blue color with Giemsa and had rough criss-crossed edges. Type II foci were also dense, multilayered, areas of cell growth, but were stained to a purple color with Giemsa and had smoother, more defined edges compared to Type III foci. Type I foci were not scored in the assay.
BBI, either as the free protein or in conjugated form to palmitic or oleic acid, was added to the cultures at 1.0 μg/ml for the first three weeks of the transformation assay period starting immediately after the MCA treatment. MCA-treated cells were exposed to 3-methylcholanthrene, dissolved in 25 /μl of acetone, at a concentration of 1 μg/ml for 24 hr. Acetone-treated cells were exposed to 25 μl of acetone for 24 hr only. […]

[3] = cited from earlier work
[4] = iv-biodistribution of 125I-BBI conjugates

B1: BBI: hydrophilic protein which has low uptake into cells and is not orally bioavailable; used for chemoprevention (protein, UniProt P01055 40-110, looked up)
Bowman-Birk type proteinase …: DDESSKPCCDQCACTKSNPPQCRCSDMRLNSCHSACKSCICALSYPAQCFCVDITDFCYEPCKPSEDDKEN
- Uptake (ng BBI/mg of cell protein)/hr ([1]; 1% FBS, 10 μg/ml, 60 min, 37° C., ± SEM, three monolayers): 2.2 ± 0.17 (ng BBI/mg of cell protein)/hr
- Uptake (ng BBI/mg of cell protein)/hr ([1]; 10% FBS, 10 μg/ml, 60 min, 37° C., ± SEM, three monolayers): 1.3 ± 0.02 (ng BBI/mg of cell protein)/hr
- Uptake (ng BBI/mg of cell protein)/hr ([1]; BSA/FA: fatty acid-loaded BSA 0.1% (3-molar excess of palmitic acid)): 3.9 ± 0.00 (ng BBI/mg of cell protein)/hr
- Uptake (ng BBI/mg of cell protein)/hr ([1]; BSA: fatty acid-free BSA 0.1%): 4.8 ± 0.00 (ng BBI/mg of cell protein)/hr
- Uptake (ng BBI/mg of cell protein)/hr ([1]; DTT-treated (50 mM, 5 min 60° C. and 25 min 37° C.), serum-free medium): 5.2 ± 0.00 (ng BBI/mg of cell protein)/hr
- Uptake (ng BBI/mg of cell protein)/hr ([1]; Untreated, serum-free medium): 4.8 ± 0.00 (ng BBI/mg of cell protein)/hr
- effect of defatted-BSA on uptake ([1]; defatted-BSA 0.1% in medium): not affected
- effect of fatty acid-loaded BSA on uptake ([1]; fatty acid-loaded BSA 0.1%): again not affected
- Uptake (ng BBI/mg of cell protein)/hr ([1]; serum free (BSA-free) Dulbecco medium): 4.8 ± 0.00 (ng BBI/mg of cell protein)/hr
- Uptake (ng BBI/mg of cell protein)/hr ([1]; serum free, 10 μg/ml, 60 min, 37° C., ± SEM, three monolayers): 3.9 ± 0.19 (ng BBI/mg of cell protein)/hr
- effect of exposure to DTT on uptake ([1]; serum-free medium): did not cause a reduction in the uptake
- transformed foci in the dishes scored [2]: no transformed foci
- Fraction of dishes containing transformed foci ([2]; scored at six weeks): 0
- No. of dishes with transformed foci/No. of dishes ([2]; scored at six weeks): 0/20
- oral bioavailability [3]: not orally bioavailable
- stability in the GI tract ([3]; mammalian proteases in the gut, Yavelow et al. 1983): stable in the GI tract
- kidney accumulation ([4]; 3 mg/kg): rapidly accumulated in the kidneys
- blood level and removal from circulation ([4]; 3 mg/kg, 0.5, 3 and 24 hr): rapidly excreted from the body without attaining high blood levels
